Laboratory results as given in paper PMC3258524, “Regulation of the human tyrosinase gene in retinal pigment epithelium cells: the significance of transcription factor orthodenticle homeobox 2 and its polymorphic binding site” (Molecular Vision, 2012).

Legend:
[1] = target: T1, full-length MITF-A (microphthalmia-associated transcription factor, isoform A) (UniProt O75030-2 1-520); assay: cell-based or functional assay
T1 sequence (looked up): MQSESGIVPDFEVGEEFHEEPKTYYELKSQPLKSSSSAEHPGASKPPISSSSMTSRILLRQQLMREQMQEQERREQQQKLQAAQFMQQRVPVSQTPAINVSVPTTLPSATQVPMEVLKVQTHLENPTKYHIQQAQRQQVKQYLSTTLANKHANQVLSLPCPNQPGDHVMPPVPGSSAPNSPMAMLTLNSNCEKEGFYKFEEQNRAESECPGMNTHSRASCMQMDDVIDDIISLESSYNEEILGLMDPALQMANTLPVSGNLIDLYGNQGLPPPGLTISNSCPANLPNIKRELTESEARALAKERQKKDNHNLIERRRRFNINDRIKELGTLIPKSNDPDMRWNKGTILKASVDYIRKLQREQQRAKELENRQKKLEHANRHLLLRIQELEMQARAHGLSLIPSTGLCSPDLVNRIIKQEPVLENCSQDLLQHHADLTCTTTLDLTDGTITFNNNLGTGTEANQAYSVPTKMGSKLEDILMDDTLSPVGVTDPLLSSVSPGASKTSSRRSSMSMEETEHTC

[2] = target: T2, full-length MITF-M (microphthalmia-associated transcription factor, isoform M) (UniProt O75030-9 1-419); assay: cell-based or functional assay
T2 sequence (looked up): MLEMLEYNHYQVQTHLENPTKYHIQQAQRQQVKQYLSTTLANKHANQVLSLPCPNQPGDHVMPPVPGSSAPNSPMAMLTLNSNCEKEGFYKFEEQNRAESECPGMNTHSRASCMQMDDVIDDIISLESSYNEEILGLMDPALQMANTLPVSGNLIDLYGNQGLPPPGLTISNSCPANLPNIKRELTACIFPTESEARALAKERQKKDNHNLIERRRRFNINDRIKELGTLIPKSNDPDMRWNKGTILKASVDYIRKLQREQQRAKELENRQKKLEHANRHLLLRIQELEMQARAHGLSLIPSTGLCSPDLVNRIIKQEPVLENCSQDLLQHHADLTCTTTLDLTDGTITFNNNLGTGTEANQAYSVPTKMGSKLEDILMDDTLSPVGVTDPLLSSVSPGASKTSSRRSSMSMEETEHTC

luciferase reporter driven by the human TYR promoter construct -152 (MITF sites, no OTX2 sites) in ARPE-19 cells cotransfected with MITF-A and OTX2; activation relative to the empty vector [1]: 20 fold | luciferase reporter driven by the human TYR promoter construct -152 (MITF sites, no OTX2 sites) in ARPE-19 cells cotransfected with MITF-M and OTX2; synergism compared with that of MITF-A and OTX2 [2]: ~1.7 fold (against MITF-A)
B1: full-length OTX2 (orthodenticle homeobox 2) (natural protein)
chain: not shown
